Where no end group is shown, it is not given here.
What was measured:
[1] = biological target: T1, pol30-Msh6E6, 6×Histidine-tagged (yeast, UniProt P15873 1-258, IDCL DIDADFLKIEEL to DYDKDLLKIIEL); assay: SPR; ProteOn XPR36; WT or mutant PCNA (0.4 to 5.2 fmol) immobilised on a GLM chip by carbodiimide-activated succinimide coupling; PIP peptides 5–5,000 nM at 30 µl/min; peptide buffer 150 mM NaCl, 1 mM EDTA, 0.01% Tween-80, 30 mM Hepes, pH 7.5; details: both partners purified
T1 construct: PCNA (POL30), yeast, in pET28; source: E. coli BL21, in cleared crude lysate (ELISA); purified by Ni-NTA (SPR)
T1 sequence: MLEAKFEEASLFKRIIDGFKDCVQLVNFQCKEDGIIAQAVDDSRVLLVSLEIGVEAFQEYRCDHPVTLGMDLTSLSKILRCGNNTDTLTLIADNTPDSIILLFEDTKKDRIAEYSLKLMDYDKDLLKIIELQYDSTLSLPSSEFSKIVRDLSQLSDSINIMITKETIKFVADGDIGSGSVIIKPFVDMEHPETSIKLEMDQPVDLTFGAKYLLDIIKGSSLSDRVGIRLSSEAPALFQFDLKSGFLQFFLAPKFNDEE

[2] = biological target: T2, pol30-Ung1E3, 6×Histidine-tagged (yeast, UniProt P15873 1-258, IDCL DIDADFLKIEEL to DFDYDELKIEEL); assay: as above; details: both partners purified
T2 construct: PCNA (POL30), yeast, in pET28; source: E. coli BL21, in cleared crude lysate (ELISA); purified by Ni-NTA (SPR)
T2 sequence: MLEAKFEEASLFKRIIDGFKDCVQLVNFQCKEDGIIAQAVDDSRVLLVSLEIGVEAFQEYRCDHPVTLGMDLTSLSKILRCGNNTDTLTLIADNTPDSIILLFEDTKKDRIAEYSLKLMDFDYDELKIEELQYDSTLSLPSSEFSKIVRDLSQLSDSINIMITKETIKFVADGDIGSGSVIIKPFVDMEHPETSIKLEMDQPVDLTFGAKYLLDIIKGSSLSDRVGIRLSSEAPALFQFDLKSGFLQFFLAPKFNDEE

## QSSLLSFF (also: biotinylated, site not given here) [PIP peptide derived from Msh6]
[1]
  fold increase in binding affinity relative to WT PCNA (SPR): 1.6 fold

## QTTIEDFF (also: biotinylated, site not given here) [PIP peptide derived from Ung1]
[2]
  fold increase in binding affinity relative to WT PCNA (SPR): 3.5 fold
